Experiment [1] has as its target rat FcεRI (αβγ2) (rat). Briefly: IgE rosetting assay on cotransfected COS 7 cells.
Experiment [2] has as its target rat FcεRI α subunit (rat). Briefly: IgE rosetting assay, COS 7 cells transfected with α cDNA alone (2 transfections); by the filing α does not reach the surface without β and γ.
The target in experiment [3] is rat FcεRI (αβγ2) (rat). Briefly: IgE rosetting assay, RBL cells (native rat receptor).
Experiment [4] deals with COS 7 cells cotransfected with the rat α and β subunits (rat). Briefly: IgE rosetting assay, COS 7 cells transfected with α and β cDNAs (2 transfections); by the filing no IgE-binding sites reach the surface.
Experiment [5] addresses rat FcεRI (αβγ2) (rat). Briefly: IgE rosetting assay, COS 7 cells cotransfected with α, β and γ cDNAs (29 transfections).
Experiment [6] has as its target rat FcεRI (αβγ2) (rat). Put plainly: IgE rosetting assay, cotransfected COS 7 cells; 50 µg/ml rat IgE added 30 minutes before mouse anti-DNP IgE (competitor of mouse anti-DNP IgE).

As to mouse IgE anti-DNP (antibody), the expression of IgE binding (% of cells) with rat FcεRI (αβγ2) (rat) [1] was 5%. The IgE Binding (rosettes/cells counted) (rosettes per 4,050 cells counted) in experiment [2] is 0. The same substance showed an IgE Binding (rosettes/cells counted) with rat FcεRI (αβγ2) (rat) [3] of 100%. Moreover, in experiment [4], the IgE Binding (rosettes/cells counted) (rosettes per 3,504 cells counted) was determined as 0. Besides, the IgE Binding (rosettes/cells counted) (rosettes per 41,238 cells counted) in the experiment with rat FcεRI (αβγ2) (rat) [5] stood at 920.

Consider non-specific rat IgE (antibody), for which the IgE Binding (rosettes/cells counted) with inhibitor (rosettes per 7,542 cells counted) with rat FcεRI (αβγ2) (rat) [6] was 0.

Source of the values: US5770396.
